Test results reported in patent US20120076797A1, “Modulation of kit signaling and hematopoietic cell development by IL-4 receptor modulation” (priority 2010, published 2012).
“Also recorded” adds a separate entry of the source.

Legend:
Type in all cases: cell-based
[1] = system: IL-4R (IL-4Rα and γc subunits); test: KL stimulation of M07e cells; immunoprecipitation of IL-4R subunits and phosphotyrosine immunoblotting; details: growth factor- and serum-deprived 12 hours, 250 ng/ml recombinant human KL, no IL-4
Method: (§1) Cell culture. M07e cells (DSMZ, Braunschweig, Germany) were cultured in RPMI-1640 (Invitrogen/Gibco, Carlsbad, Calif.) with 10% fetal calf serum (FCS; Omega Scientific, Tarzana, Calif.) in the presence of human IL-3 (20 ng/ml; Biosource, Camarillo, Calif.) and human IL-4 (20 ng/ml; R&D Systems Inc, Minneapolis, Minn.). For stimulation of Kit with Kit ligand (KL), M07e cells were growth factor—as well as serum-deprived for 12 hours prior to stimulation with 250 ng/ml of recombinant human KL (Biosource, Camarillo, Calif.).
(§2) Immunoprecipitation and immunoblotting. Immunoprecipitation and immunoblotting were performed as reported previously (Mani, M. et al. Blood 114, 2900-2908 (2009)). Following stimulation with KL, cells were collected in ice-cold PBS containing 1 mM sodium ortho-vanadate (Sigma, St. Louis, Mo.), resuspended at a density of 1×10^7-2×10^7 cells/ml in lysis buffer containing 10 mM Tris-HCl (pH7.4), 150 mM NaCl, 20 mM sodium phosphate (pH7.4), 10 mM sodium pyrophosphate (pH7.4), 5 mM EDTA, 1 mM sodium ortho-vanadate, 1 mM glycerophosphate (Sigma) and 1% Triton X-100, and lysed. Protease inhibitors (Complete Protease Inhibitor Cocktail, Roche, Indianapolis, Ind.) were added according to manufacturer's recommendations. Post-nuclear supernatants were subjected to one round of pre-clearing with Protein A Sepharose (Amersham/Pharmacia, Piscataway, N.J.). […]

[2] = target: T1, Kit (Homo sapiens, UniProt P10721); test: KL stimulation of M07e cells; phosphorylation of Kit; details: 250 ng/ml recombinant human KL
T1 construct: M07e cells are known to express both Kit and IL-4R; host or cells: M07e (human megakaryoblastic cell line)
Method: as §1, §2

[3] = system: murine HSC (Lin-Sca-1+Kit+); IL-4R/STAT6; test: Intracellular phospho-STAT6 analysis (Phospho-Flow) of murine HSC after IL-4 stimulation; details: murine bone marrow Lin-Sca-1+Kit+ HSC, 1 ng/ml recombinant mouse IL-4, 15 min
Excerpt: Intracellular phospho-STAT6 analysis. Cells derived from c-Kit(BAC)-EGFP mice that are transgenic for a bacterial artificial chromosome expressing EGFP under the control of the Kit promoter were used instead of anti-Kit antibodies (Tallini, Y. N. et al. Proc Natl Acad Sci USA 106, 1808-1813 (2009)). Freshly isolated murine bone marrow mononuclear cells were suspended in cold RPMI-1640 containing 10% FBS and stained with PE-CY7 conjugated anti-mouse Sca-1 (BD Biosciences, San Jose, Calif., Cat 558162) and PE conjugated anti-mouse lineage cocktail (Biolegend, San Diego, Calif. Cat: 78035) at 4° C. for 60 min. The cells were washed with cold RPMI-1640 containing 10% FBS and resuspended in pre-warmed RPMI-1640 containing 10% FBS at concentration of 5-10 million cells/ml. Cells were transferred as 0.5 ml aliquots into flow cytometry test tubes (BD Biosciences, Falcon 2052), rested at 37° C. for 1 hr and stimulated with 1 ng/ml of recombinant mouse IL-4 (Invitrogen, Cat: PMC 0045) for 15 min. Cells were fixed by adding 25 μl of 32% paraformaldehyde (EM grade, Electron Microscopy Sciences, Hatfield, Pa., Cat: 15714) at room temperature for 10 min. […] Samples were washed (centrifugation at 1800 rpm for 5 min) once with staining buffer and analyzed on an FACS Aria II (BD Biosciences). The results were analyzed using Flow Jo software.

T1 sequence (P10721 26-976): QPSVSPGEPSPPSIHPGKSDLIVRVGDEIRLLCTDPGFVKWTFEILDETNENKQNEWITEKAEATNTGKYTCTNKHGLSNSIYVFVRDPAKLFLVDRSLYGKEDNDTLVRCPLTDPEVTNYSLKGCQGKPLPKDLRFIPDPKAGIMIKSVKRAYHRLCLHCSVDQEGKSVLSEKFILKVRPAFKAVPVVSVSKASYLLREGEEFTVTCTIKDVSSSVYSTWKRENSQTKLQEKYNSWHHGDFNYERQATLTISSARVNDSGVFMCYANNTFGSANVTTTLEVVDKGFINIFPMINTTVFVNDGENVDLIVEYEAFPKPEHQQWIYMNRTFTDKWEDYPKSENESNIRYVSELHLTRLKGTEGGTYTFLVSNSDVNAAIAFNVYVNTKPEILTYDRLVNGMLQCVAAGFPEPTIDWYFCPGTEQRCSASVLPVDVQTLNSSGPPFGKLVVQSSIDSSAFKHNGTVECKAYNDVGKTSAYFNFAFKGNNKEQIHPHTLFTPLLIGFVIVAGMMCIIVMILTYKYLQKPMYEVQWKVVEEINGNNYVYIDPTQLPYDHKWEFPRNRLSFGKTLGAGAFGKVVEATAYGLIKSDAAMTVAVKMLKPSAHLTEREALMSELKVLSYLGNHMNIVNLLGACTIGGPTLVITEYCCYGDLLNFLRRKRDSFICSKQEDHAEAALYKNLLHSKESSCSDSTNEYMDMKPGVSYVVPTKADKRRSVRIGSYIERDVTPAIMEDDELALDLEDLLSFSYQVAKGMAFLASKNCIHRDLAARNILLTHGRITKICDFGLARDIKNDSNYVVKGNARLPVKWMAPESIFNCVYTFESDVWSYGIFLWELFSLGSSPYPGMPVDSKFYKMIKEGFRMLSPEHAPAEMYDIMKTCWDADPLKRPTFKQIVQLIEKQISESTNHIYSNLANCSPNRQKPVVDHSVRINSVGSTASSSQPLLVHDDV

Molecule	time to tyrosine phosphorylation of IL-4Rα and γc subunits of IL-4R after KL treatment [1]	phosphorylation of Kit after KL stimulation [2]	STAT6 phosphorylation in response to IL-4 stimulation [3]
KL: recombinant human Kit ligand (Biosource), ligand of the Kit receptor, used to stimulate M07e cells	≤ 5 min	rapid phosphorylation of Kit	–
IL-4: recombinant mouse interleukin 4 (Invitrogen), cognate ligand of IL-4R, used to stimulate murine HSC (protein) HIHGCDKNHLREIIGILNEVTGEGTPCTEMDVPNVLTATKNTTESELVCRASKVLRIFYLKHGKTPCLKKNSSVLMELQRLFRAFRCLDSSISCTMNESKSTSLKDFLESLKSIMQMDYS	–	–	STAT6 phosphorylation was observed; also recorded: STATE phosphorylation
